In one test the test system is cdc4Δ strain. Nature of the test: plasmid shuffle assay: complementation of a cdc4Δ strain by CDC4 alleles. It is filed as cell-based, yeast. To be noted: viability of cdc4Δ strain on 5-FOA, 2 days at 30° C. The essentials:
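Mutant CDC4 alleles on TRP1 CEN plasmids were shuffled into cdc4Δ strain MT 1259 carrying wild-type CDC4 on a URA3 plasmid, with growth on 5-FOA for 2 days at 30° C. Survivors were transformed with GAL1-SIC1 or phosphosite mutants and plated on glucose or galactose, 2 days at 30° C.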

A further test has as its system phospho-Sic1. The test can be described thus: P-Sic1 pull down: in vitro capture of phospho-Sic1 on immobilized wild type or mutant Cdc4-GST-Skp1, anti-Sic1 immunoblot. It is filed as binding, yeast. The settings on record: Sic1 phosphorylated with Cln2-Cdc28, captured onto GST-Skp1/Cdc4 resin, anti-Sic1 detection. The essentials:
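Bacterial His6-Sic1 phosphorylated by Cln2-Cdc28 from Sf9 cells; 0.5 μg phospho-Sic1 incubated with 1 μg immobilized wild-type or mutant Cdc4(263-744)-GST-Skp1 at 4° C for 1 h, washed four times. Bound Sic1 detected by anti-Sic1 immunoblot after SDS-PAGE.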
On the technique in general: A western blot detects proteins with antibodies after separation by electrophoresis.

In another test the target is T1, Skp1 (Saccharomyces cerevisiae, UniProt P52286).
T1 construct: GST (N); made in house; host or cells: bacteria
T1 sequence (P52286 2-194 limits assumed): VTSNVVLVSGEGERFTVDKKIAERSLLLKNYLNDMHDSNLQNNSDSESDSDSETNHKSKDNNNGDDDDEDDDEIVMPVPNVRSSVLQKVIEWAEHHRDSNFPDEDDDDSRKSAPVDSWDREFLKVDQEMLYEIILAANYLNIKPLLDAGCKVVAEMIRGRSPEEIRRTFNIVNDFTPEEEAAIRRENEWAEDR
The test can be described thus: Skp1 binding in vitro (pull down). Details: species or system yeast. An excerpt:
In order to probe the functional importance of amino acid residues on the highly conserved peptide binding surface, a panel of Cdc4 mutants (both single and double mutant) were generated and tested each for its ability to bind phospho Sic1 and Skp1 in vitro using a pull down assay and for its ability to substitute for wt-cdc4 in vivo using a cell viability assay. Of 12 single site mutants tested, only Arg 467. Arg485Ala Arg534Ala, and Trp 426 abolished both cell viability in vivo and phosphoSic1 binding in vitro. Together, these residues compose most of the interaction surface with the pThr, Pro CPD core. […] Presumably in the context of the full SCF complex in vivo this mutant is sufficiently well behaved to bind phospho Sic1.

Test [1] deals with cdc4Δ strain overexpressing SIC1. Nature of the test: sensitivity to SIC1 dosage: GAL1-SIC1 overexpression in strains bearing CDC4 alleles. Format: cell-based, yeast. To be noted: galactose, 2 days at 30° C. Here is the method: Mutational analysis of the CPD binding surface. Mutants were tested in vitro by ability to bind phosphorylated Sic1 and then captured onto GST-Skp1/Cdc4 resin and detected with anti-sic1 antibody. Mutants were tested in vivo by ability to degrade GAL1-SIC1 or various phosphorylation mutants. Sites are as follows: 3=Thr 33, Thr 45, Ser 76; 4=Thr 5, Thr 33, Thr 45, Ser 76; 5=Thr 2, Thr 5, Thr 33, Thr 45, Ser 76; 6=Thr 2, Thr 5, Thr 33, Thr 45, Ser 69, Ser 76; 7=Thr 2, Thr 5, Thr 33, Thr 45, Ser 69, Ser 76, Ser 80. GAL1-SIC1 plasmids were transformed into a cdc4Δ strain containing a copy of CDC4 on a TRP1 ARS CEN plasmid. Strains were incubated for 2 days at 30° C.
All mutants on a TRP1 ARS CEN plasmid were transformed into a cdc4Δ strain (MT 1259) containing a wildtype copy of CDC4 on a URA3 ARS CEN plasmid. Cells were plated on either Trp^−Ura^− or 5-FOA medium for 2 days at 30° C. Viable cells on 5-FOA were grown in Trp medium and transformed with either wild type GAL1-SIC1, GAL1-SIC T45A, or GAL1-SIC T33V on a LEU2 ARS CEN pasmid. Cells were then plated on Leu- Trp-plates containing either glucose or galactose and incubated for 2 days at 30° C.
Since the cell viability assay nay be masking subtle functional roles for the conserved Cdc4 residues, function was assayed in vivo under more stringent conditions in which Sic1 wt or the stabilized mutants, Sic1 (T33V) or Sic1(T45A) are over-expressed under a galactose promoter. This should amplify defects in cdc4 function. Under these conditions, Trp 717, Tyr 548 and the double mutant K404D/R443D are lethal showing that these residues are in fact important for functions
Cdc4 functional assays. CDC4 mutant alleles were assessed for complementation of a cdc4A strain in a plasmid shuffle assay (Nash et al., 2001). Sensitivity to SIC1 dosage was determined by transformation with pMT837 (GAL1-SIC1) or pMT767 (GAL1-SIC1^T33V) and plating on glucose medium or galactose medium. For in vitro capture of phospho-Sic1 by Cdc4, 0.5 μg of bacterially-expressed ^HIS6Sic1 was phosphorylated with immobilized Cln2-Cdc28 kinase from baculovirus-infected Sf9 cells and then incubated with 1 μg of immobilized wild type or mutant Cdc4^263-744-GST-Skp1, at 4° C. for 1 hr, washed 4 times and visualized by anti-Sic1 immunoblot. For isoelectric focusing (IEF)-2D gel analyses, an evenly distributed pool of phospho-Sic1 isoforms was generated by combining different time points in a Sic1 phosphorylation reaction. 2.5 μg of the phospho-Sic1 pool was bound to 5 μg of immobilized wild type or mutant Cdc4^1-744-GST-Skp1. Captured isoforms were separated by denaturing IEF-2D gel electrophoresis using pH3-10NL Immobiline gel strips (Amersham) and visualized by anti-Sic1 immunoblot. Alternatively, the pool of phospho-Sic1 isoforms was incubated in solution with a ubiquitination reaction mix containing ATP, ubiquitin, yeast E1, Cdc34 and either wild type or mutant SCF^Cdc4 complex, composed of a 1:1 ratio of bacterial Cdc4-GST-Skp1 and insect cell-produced Cdc53-Rbx1, at 30° C. for 1 h as previously described (Nash et al., 2001).

For the next test, the system named is phospho-Sic1 isoforms. Nature of the test: IEF-2D gel analysis of Sic1 phospho-isoforms captured by wild type or mutant Cdc4-GST-Skp1. Format: binding, yeast. The settings on record: pool of Sic1 phosphorylated on 1 to 9 sites. Here is the method:
Bacterially expressed His6-Sic1 was phosphorylated with Cln2-Cdc28 kinase purified from baculovirus infected Sf9 cells as described before (Nature paper). 1 ug of WT or mutant Cdc4-GST-Skp1, immoblized on GSH-Sepharose resin, was incubated with 0.5 ug phospho-Sic1 at 4 C for 1 h and washed 4 times. Captured complexes were resolved on SDS-PAGE and Sic1 visualized by anti-Sic1 Western blotting and ECL. For IEF-2D analysis, several Sic1 phosphorylation reactions were carried out for different time periods to obtain a spectrum of Sic1 that were phosphorylated at different numbers of its nine CDK sites. This pool of phospho-Sic1 (2.5 ug) was incubated with 5 μg of WT or mutant Cdc4-GST-Skp1 as described above. Different phosphorylation states of Sic1 were separated by denaturing isoelectric focusing (IEF)-2D gel electrophoresis and visualized by anti-Sic1 Western blotting and ECL. IEF was performed using pH 3-10NL Immobiline gel strips and IPGphore IEF system (Amersham pharmacia).
Cdc4 functional assays. CDC4 mutant alleles were assessed for complementation of a cdc4A strain in a plasmid shuffle assay (Nash et al., 2001). Sensitivity to SIC1 dosage was determined by transformation with pMT837 (GAL1-SIC1) or pMT767 (GAL1-SIC1^T33V) and plating on glucose medium or galactose medium. […]

The text below walks through data of US20040171074A1, “Structures of substrate binding pockets of SCF complexes” (MOUNT SINAI HOSPITAL, priority 2002, published 2004).

Residue numbers refer to the chain shown, from its start. Names may count otherwise. “Also recorded” adds a separate entry of the source.

B1: R467A: mutant cdc4 polypeptide (protein)
chain: MGSFPLAEFPLRDIPVPYSYRVSGGIASSGSVTALVTAAGTHRNSSTAKTVETEDGEEDIDEYQRKRAAGSGESTPERSDFKRVKHDNHKTLHPVNLQNTGAASVDNDGLHNLTDISNDAEKLLMSVDDGSAAPSTLSVNMGVASHNVAAPTTVNAATITGSDVSNNVNSATINNPMEEGALPLSPTASSPGTTTPLAKTTKTINNNNNIADLIESKDSIISPEYLSDEIFSAINNNLPHAYFKNLLFRLVANMDRSELSDLGTLIKDNLKRDLITSLPFEISLKIFNYLQFEDIINSLGVSQNWNKIIRKSTSLWKKLLISENFVSPKGFNSLNLKLSQKYPKLSQQDRLRLSFLENIFILKNWYNPKFVPQRTTLRGHMTSVITCLQFEDNYVITGADDKMIRVYDSINKKFLLQLSGHDGGVWALKYAHGGILVSGSTDRTVRVWDIKKGCCTHVFKGHNSTVACLDIVEYKNIKYIVTGSRDNTLHVWKLPKESSVPDHGEEHDYPLVFHTPEENPYFVGVLRGHMASVRTVSGHGNIVVSGSYDNTLIVWDVAQMKCLYILSGHTDRIYSTIYDHERKRCISASMDTTIRIWDLENIWNNGECSYATNSASPCAKILGAMYTLQGHTALVGLLRLSDKFLVSAAADGSIRGWDANDYSRKFSYHHTNLSAITTFYVSDNILVSGSENQFNIYNLRSGKLVHANILKDADQIWSVNFKGKTLVAAVEKDGQSFLEILDFSKASKINYVSNPVNSSSSSLESISTSLGLTRTTIIP
As to B1, the shuffle entry was “dead” in the test with cdc4Δ strain, “abolished” in the test on cdc4Δ strain (listed as Arg 467) and “unable” with cdc4Δ strain (listed as Arg467Ala). In addition, the P-Sic1 pull down result in the test with phospho-Sic1 is on record as “no bind”; with phospho-Sic1 (listed as Arg 467), “abolished”; with phospho-Sic1 (listed as Arg467Ala) it was “unable to bind”. In addition, in the test with Skp1, the Skp1 binding entry is “fully competent”.

B2: R485A: mutant cdc4 polypeptide (protein)
chain: B1 chain with A467R, R485A
On to B2, for which the results for the shuffle entry with cdc4Δ strain and in the test on cdc4Δ strain (listed as Arg485Ala) were “dead” and “abolished; also recorded: unable”, respectively. Moreover, the P-Sic1 pull down entry in the test with phospho-Sic1 was “no bind”; in the test on phospho-Sic1 (listed as Arg485Ala), “abolished; also recorded: unable to bind”. For the same molecule, the Skp1 binding result with Skp1 is “fully competent”.

B3: R534A: mutant cdc4 polypeptide (protein)
chain: B1 chain with A467R, R534A
Consider B3, for which the results for the shuffle result in the test with cdc4Δ strain and in the test on cdc4Δ strain (listed as Arg534Ala) were “dead” and “abolished; also recorded: unable”, respectively. The P-Sic1 pull down entry with phospho-Sic1 is “no bind”; with phospho-Sic1 (listed as Arg534Ala), “abolished; also recorded: unable to bind”. For the same molecule, the Skp1 binding result in the test with Skp1 is given as “fully competent”.

B4: W426A: mutant cdc4 polypeptide (protein)
chain: B1 chain with W426A, A467R
As for B4, the shuffle result in the test on cdc4Δ strain is on record as “dead”; with cdc4Δ strain (listed as Trp 426), “abolished”; in the test on cdc4Δ strain (listed as Trp426Ala), “unable”. For the same molecule, the P-Sic1 pull down entry in the test with phospho-Sic1 is recorded as “no bind”; with phospho-Sic1 (listed as Trp 426), “abolished”; in the test on phospho-Sic1 (listed as Trp426Ala), “unable to bind”. The Skp1 binding result with Skp1 is “fully competent”.

B5: W717N/V384N: double mutant cdc4 polypeptide compromised for selection at P−1 (protein)
chain: B1 chain with V384N, A467R, W717N
In the case of B5, the shuffle entry in the test on cdc4Δ strain is listed as “alive”; with cdc4Δ strain (listed as V384N/W717N), “viable”. The P-Sic1 pull down result in the test on phospho-Sic1 was “bind”; in the test with phospho-Sic1 (listed as V384N/W717N) it was “fully competent”. Besides, in test [1] (GAL1-SIC1 T33V (partially stabilized Sic1)), the “gal Sic1T33V” value is “dead”. For the same molecule, in test [1] (GAL1-SIC1 T45A), the “gal Sic1T45A” value is listed as “dead”. The “gal Sic1 wt” value in test [1] (GAL1-SIC1 wild type) was “alive”. Moreover, in the test on phospho-Sic1 isoforms, the “Sic1 phospho-isoforms captured (number of phosphorylated sites)” value was “as few as four”.
